# Results reported in publication PMC10054925 (bioRxiv, 2023).
# B1: Vibrio cholerae HlyU (VcHlyU), transcriptional activator of hlyA (natural protein)
# chain: MPYLKGAPMNLQEMEKNSAKAVVLLKAMANERRLQILCMLLDNELSVGELSSRLELSQSALSQHLAWLRRDGLVNTRKEAQTVFYTLSSTEVKAMIELLHRLYCQANQ
# Target: the molecule itself
# Assay: SEC
protein,measurement,value
B1,stoichiometry N,2
